Patent publication US20240156869A1 (published 2024)

Biological target: T1, HERV-E (CT-RCC8/9 by the listing's note) peptide on HLA-A*11 (human)
T1 peptide: ATFLGSLTWK
Test: cytokine release
Experimental: To test whether A*11 expression conferred target recognition to these transduced cells, a co-culture experiment was performed. […] After 18 hours, the supernatant was collected and an ELSIA was performed on the supernatant for interferon-gamma (IFNγ).
To test whether A*02 expression conferred target recognition to these transduced cells, a co-culture experiment was performed. […] After 18 hours, the supernatant was collected, and an ELISA was performed on the supernatant for Interferon-gamma (IFNγ).

B1: HERV-E-TCR (TCR, V domains shown)
Valpha: GIQVEQSPPDLILQEGANSTLRCNFSDSVNNLQWFHQNPWGQLINLFYIPSGTKQNGRLSATTVATERYSLLYISSSQTTDSGVYFCAVRGGADGLTFGKGTHLIIQP
Vbeta: DTEVTQTPKHLVMGMTNKKSLKCEQHMGHRAMYWYKQKAKKPPELMFVYSYEKLSINESVPSRFSPECPNSSLLNLHLHALQPEDSALYLCASSPPNEKLFFGSGTQLSVL
  binding result: recognises
